Assay results published in US20210070883A1 (AQUALUNG THERAPEUTICS, published 2021).
Changes are numbered by the printed parent chain.

B1: 1093 humanized anti-hNAMPT antibody NN-1093 (antibody, V domains shown)
VH: QVQLVQSGAEVTKPGASVKVSCKASGYTFTSYWMHWVRQAPGQGLEWVGEIDPSDSYTNYNQKFKGRVTLTRDTSTTTVYMELSSLRSEDTAVYYCAKSNYVVPWYFDVWGQGTTVTVSS
VL: EIVLTQSPATLSLSPGERATLSCRSSKSLLHSNGITYLYWYQQKPGQAPRLLIYQMSNLASGIPARFSGSGSGTDFTLTISSLEPEDFAVYYCAQNLELPWTFGGGTKLEIK
notes: Humanized from AL-310; it was detected with a goat anti-human antibody
B2: 1076 humanized anti-hNAMPT antibody K-1076 (antibody, V domains shown)
VH: QVQLVQSGAEVKKPGASVKVSCKASGYTFTSYWMQWVRQAPGQGLEWMGEIDPSNSYTNYNQKFRGRVTMTTDTSTSTAYMELRSLRSDDTAVYYCARGGYWGQGTTVTVSS
VL: DIVMTQSPLSLPVTPGEPASISCRSSKSLLHSQGITYLYWYLQKPGQSPQLLIYQLSNRASGVPDRFSGSGSGTDFTLKISRVEAEDVGVYYCVQNLELPYTFGGGTKLEIK
notes: also called Ab-1076-HC2-LC5
B3: murine anti-hNAMPT antibody AL-303 (antibody, V domains shown)
VH: QVQLQQPGADLVKPGASVKLSCKASGYTFTSYWMQWVKQRPGQGLEWIGEIDPSNSYTNYNQKFRGKATLTVDPSSSTAYMQLSSLTSEDSAVYYCARGGYWGQGTTLTVSS
VL: DIVMTQAAFSNPVTLGTSASISCRSSKSLLHSNGITYLYWYLQKPGQSPQLLIYQMSNLASGVPDRFSSSGSGTDFTLRISRVEAEDVGVYYCVQNLELPYTFGGGTKLEIK
notes: Murine monoclonal antibody
B4: murine anti-NAMPT antibody AL-310 (antibody, V domains shown)
VH: QVQLQQSGAESVMPGASVKLSCKASGYTFTSYWMHWVKQRPGQGLEWIGEIDPSDSYTNYNQKFKGKSTLTVDKSSSTAYMQLSSLTSEDSAVYYCAKSNYVVPWYFDVWGTGTTVTVSS
VL: B3 VL with V94A, Y101W
notes: Murine monoclonal antibody; also called AL-310mAb
B5: murine anti-NAMPT antibody AL-304 (antibody, V domains shown)
VH: B3 VH
VL: B3 VL

What was measured:
[1] = biological target: T1, human nicotinamide phosphoribosyltransferase (NAMPT) (human, UniProt P43490 1-491); experiment: told with the Pepscan epitope mapping; assay for the dimer not described
T1 construct: Recombinant hNAMPT was bought (MBL International); In the Western blots the protein was recombinant or in HPAEC lysate; also called hNAMPT; recombinant hNAMPT
T1 sequence (P43490 whole entry): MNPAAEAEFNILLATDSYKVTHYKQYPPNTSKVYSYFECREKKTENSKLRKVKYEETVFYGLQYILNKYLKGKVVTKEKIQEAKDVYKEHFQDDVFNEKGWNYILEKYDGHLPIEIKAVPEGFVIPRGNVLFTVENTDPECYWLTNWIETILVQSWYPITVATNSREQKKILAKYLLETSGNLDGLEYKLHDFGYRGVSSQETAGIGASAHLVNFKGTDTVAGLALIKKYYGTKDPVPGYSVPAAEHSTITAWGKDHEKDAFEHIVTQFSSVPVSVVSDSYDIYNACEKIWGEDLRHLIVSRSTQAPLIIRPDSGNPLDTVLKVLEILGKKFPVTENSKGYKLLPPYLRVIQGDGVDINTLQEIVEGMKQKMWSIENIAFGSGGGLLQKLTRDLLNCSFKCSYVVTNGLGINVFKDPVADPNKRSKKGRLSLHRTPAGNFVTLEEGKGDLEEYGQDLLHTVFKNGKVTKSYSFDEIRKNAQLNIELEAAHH

[2] = biological target: T1, human nicotinamide …; experiment: Western blot on recombinant hNAMPT and HPAEC cell lysate, exposures of 30 sec and 5 min
mouse NAMPT = biological target: T2, mouse NAMPT (mouse, UniProt Q99KQ4 1-491, limits assumed); experiment: Western blot on recombinant mNAMPT and mouse lung lysates (SB, LPS, VILI), exposures of 30 sec and 5 min
T2 construct: Recombinant mNAMPT; also called mNAMPT; recombinant mouse NAMPT
T2 sequence (Q99KQ4 whole entry): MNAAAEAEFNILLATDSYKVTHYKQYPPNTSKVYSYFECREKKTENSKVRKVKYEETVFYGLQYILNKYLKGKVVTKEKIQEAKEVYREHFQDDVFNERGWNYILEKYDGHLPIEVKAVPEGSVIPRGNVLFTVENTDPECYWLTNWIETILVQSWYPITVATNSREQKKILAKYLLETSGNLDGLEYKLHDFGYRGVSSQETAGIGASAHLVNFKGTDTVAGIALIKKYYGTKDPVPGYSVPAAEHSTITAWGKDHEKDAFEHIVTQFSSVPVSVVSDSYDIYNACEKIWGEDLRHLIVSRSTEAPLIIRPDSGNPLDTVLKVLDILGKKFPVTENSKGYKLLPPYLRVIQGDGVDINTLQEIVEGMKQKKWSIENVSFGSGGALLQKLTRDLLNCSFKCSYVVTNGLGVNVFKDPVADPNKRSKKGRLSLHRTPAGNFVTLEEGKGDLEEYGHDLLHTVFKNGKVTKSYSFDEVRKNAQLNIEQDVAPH

Row | Binder | binding result [1] | binding result [2] | binding result (mouse NAMPT)
1 | B1 | binds |  | 
2 | B2 | binds |  | 
3 | B3 |  | binds | binds
4 | B4 |  | binds | no binding
5 | B5 |  | binds | binds
